Experimental findings from publication PMC11480844 (2024) are described below.

First the molecules themselves.
B1: H2-Kb / F4 (parent complex)
chain 1: QQQVRQSPQSLTVWEGETAILNCSYEDSTFNYFPWYQQFPGEGPALLISIRSVSDKKEDGRFTIFFNKREKKLSLHITDSQPGDSATYFCAAMSNYNVLYFGSGTKLTVEP
chain 2: ETAVFQTPNYHVTQVGNEVSFNCKQTLGHDTMYWYKQDSKKLLKIMFSYNNKQLIVNETVPRRFSPQSSDKAHLNLRIKSVEPEDSAVYLCASSARQNSPLYFAAGTRLTVT
chain 3: not shown
chain 4: IQKTPQIQVYSRHPPENGKPNILNCYVTQFHPPHIEIQMLKNGKKIPKVEMSDMSFSKDWSFYILAHTEFTPTETDTYACRVKHDSMAEPKTVYWDRDM
chain 5: SIINFEKL
B2: H2-Kb / Ed8 (parent complex)
chain 1: AQSVTQPDARVTVSEGASLQLRCKYSYFGTPYLFWYVQYPRQGLQLLLKYYPGDPVVQGVNGFEAEFSKSNSSFHLRKASVHWSDWAVYFCAVSPGSGGKLTLGAGTRLQVNL
chain 2: DSGVVQSPRHIIKEKGGRSVLTCIPISGHSNVVWYQQTLGKELKFLIQHYEKVERDKGFLPSRFSVQQFDDYHSEMNMSALELEDSAMYFCASSPRASNYTFGSGTRLLVI
chain 3: not shown
chain 4: B1 chain 4
chain 5: SIINFEKL
Also: test concentration or dose not given here.

The first experiment covers variants of B1. As to the kind of experiment: % of reporter cells activated (NFAT-GFP), raw.
Consider chain 5 I3A, for which the ratio to parent came out at 0.467. Same read-out and setting: in the case of chain 5 L8T it was 0.614; in that of chain 5 L8H, 0.805; in that of chain 5 I2V, 1.94.

Turning to chain 5 I2M, the ratio to parent was determined as 0.617.

In the case of chain 5 I2N, the ratio to parent is 0.305. With chain 5 I2A, the ratio to parent stood at 1.38. On the same count and under the same terms, in the case of chain 5 F5P it was 0.0353; in that of chain 5 F5D, 0.129; in that of chain 5 F5G, 0.264.

For chain 5 F5C, the ratio to parent stood at 1.29.

For the variant chain 5 S1R, the ratio to parent turned out to be 0.0259. The same measure, in the same setting: in the case of chain 5 N4E it was 0.0228. Still for that read-out and setting: in the case of chain 5 N4W it was 0.0415.

The variants in a further experiment derive from B2. As to the kind of experiment: % of reporter cells activated (NFAT-GFP), raw.
On to chain 5 E6A, for which the ratio to parent amounted to 0.678. The same measure, in the same setting: to chain 5 E6W belongs 0.012; to chain 5 E6Y, 0.606; to chain 5 E6N, 0.733.

As for chain 5 E6C, the ratio to parent worked out at 0.0436. The same measure, in the same setting: to chain 5 E6I belongs 0.00371; to chain 5 E6V, 0.0189.

As to chain 5 E6Q, the ratio to parent came out at 0.777. Still for that read-out and setting: in the case of chain 5 E6P it was 0.27; in that of chain 5 E6L, 0.0522. On to chain 5 E6M, for which the ratio to parent was 0.453. The same measure, in the same setting: in the case of chain 5 E6G it was 1.04; in that of chain 5 E6R, 0.459. The same measure, in the same setting: to chain 5 S1R belongs 0.799; to chain 5 S1Y, 1.16.

In the case of chain 5 S1K, the ratio to parent worked out at 1.02. With chain 5 S1L, the ratio to parent turned out to be 0.917. On the same count and under the same terms, to chain 5 S1A belongs 1.28; to chain 5 S1E, 1.28; to chain 5 S1T, 1.37.

As for chain 5 S1N, the ratio to parent amounted to 0.821. The same measure, in the same setting: in the case of chain 5 S1V it was 1.15; in that of chain 5 S1Q, 1.24; in that of chain 5 S1P, 1.13. Still for that read-out and setting: in the case of chain 5 S1D it was 1.12; in that of chain 5 S1I, 0.983. Still for that read-out and setting: in the case of chain 5 S1G it was 1.28; in that of chain 5 S1W, 1.05. For chain 5 S1C, the ratio to parent worked out at 1.03. Still for that read-out and setting: in the case of chain 5 S1H it was 1.3; in that of chain 5 S1M, 1.27; in that of chain 5 K7C, 0.326. chain 5 K7V: the ratio to parent is 0.73. chain 5 K7G: the ratio to parent is 0.616. chain 5 K7R: the ratio to parent came to 1.16. Same read-out and setting: to chain 5 K7F belongs 0.393; to chain 5 K7A, 0.643; to chain 5 K7Y, 0.958. As for chain 5 K7T, the ratio to parent worked out at 0.648. The same measure, in the same setting: to chain 5 K7L belongs 0.815. Turning to chain 5 K7Q, the ratio to parent was found to be 0.662. Still for that read-out and setting: to chain 5 K7E belongs 0.0642; to chain 5 K7W, 0.826. Same read-out and setting: in the case of chain 5 K7P it was 0.689; in that of chain 5 K7N, 0.809; in that of chain 5 K7D, 0.0673. As for chain 5 K7I, the ratio to parent came to 0.698. Same read-out and setting: to chain 5 K7S belongs 0.898. On the same count and under the same terms, to chain 5 K7M belongs 0.578; to chain 5 K7H, 1.25. The same measure, in the same setting: in the case of chain 5 F5G it was 1.03; in that of chain 5 F5T, 1.32; in that of chain 5 F5N, 1.1. Regarding chain 5 F5Q, the ratio to parent came to 1.04. The same measure, in the same setting: in the case of chain 5 F5W it was 1.12; in that of chain 5 F5L, 1.41; in that of chain 5 F5M, 1.25. Still for that read-out and setting: in the case of chain 5 F5E it was 0.932; in that of chain 5 F5P, 1.16; in that of chain 5 F5Y, 1.34. On to chain 5 F5C, for which the ratio to parent worked out at 1.3.

For the variant chain 5 F5V, the ratio to parent amounted to 1.09. For the variant chain 5 F5D, the ratio to parent stood at 1.12. In the case of chain 5 F5I, the ratio to parent is 0.895. Same read-out and setting: in the case of chain 5 F5K it was 1.02.

chain 5 F5S: the ratio to parent is 1.21.

With chain 5 I2H, the ratio to parent amounted to 1.13. Still for that read-out and setting: in the case of chain 5 I2L it was 1.37; in that of chain 5 I2A, 1.41; in that of chain 5 I2T, 1.43. Take chain 5 I2F: the ratio to parent was 1.25.

As for chain 5 I2N, the ratio to parent turned out to be 1.26. Same read-out and setting: to chain 5 I2W belongs 1.16; to chain 5 I2Q, 1.06; to chain 5 I2M, 1.2.

As for chain 5 I2V, the ratio to parent worked out at 1.41.

For chain 5 I2Y, the ratio to parent came to 1.06. Still for that read-out and setting: to chain 5 I2C belongs 1.33; to chain 5 I2R, 1.16; to chain 5 I2E, 1.34. On the same count and under the same terms, to chain 5 I2S belongs 1.37; to chain 5 I2K, 1.18; to chain 5 I2D, 1.39. Turning to chain 5 I2P, the ratio to parent is 1.4. The same measure, in the same setting: in the case of chain 5 I3T it was 1.34. With chain 5 I3A, the ratio to parent stood at 1.14. The same measure, in the same setting: in the case of chain 5 I3D it was 1.17. On the same count and under the same terms, to chain 5 I3S belongs 1.3; to chain 5 I3K, 1.03. Consider chain 5 I3N, for which the ratio to parent was found to be 1.32. chain 5 I3L: the ratio to parent amounted to 1.3.

chain 5 I3R: the ratio to parent came out at 0.541. The same measure, in the same setting: in the case of chain 5 I3F it was 0.98. chain 5 I3Y: the ratio to parent is 0.813. On the same count and under the same terms, to chain 5 I3P belongs 1.25; to chain 5 I3C, 1.27. On the same count and under the same terms, to chain 5 I3Q belongs 1.02. As for chain 5 I3W, the ratio to parent came to 1.03. On the same count and under the same terms, in the case of chain 5 I3H it was 1.4; in that of chain 5 I3M, 1.27; in that of chain 5 L8I, 1.15. Still for that read-out and setting: to chain 5 L8H belongs 1.22; to chain 5 L8P, 1.21.

Consider chain 5 L8D, for which the ratio to parent was 0.903. For the variant chain 5 L8Y, the ratio to parent stood at 1.16. Same read-out and setting: in the case of chain 5 L8M it was 1.13; in that of chain 5 L8N, 1.06. Same read-out and setting: in the case of chain 5 L8C it was 1.04; in that of chain 5 L8S, 0.945. Consider chain 5 L8G, for which the ratio to parent amounted to 1.2. On the same count and under the same terms, in the case of chain 5 L8A it was 1.05; in that of chain 5 L8Q, 1.13.

In the case of chain 5 L8W, the ratio to parent was found to be 0.95.

On to chain 5 L8F, for which the ratio to parent came out at 1.12. The same measure, in the same setting: in the case of chain 5 L8V it was 0.877.

Turning to chain 5 L8K, the ratio to parent turned out to be 1.15.

For chain 5 L8T, the ratio to parent stood at 1.1. Same read-out and setting: in the case of chain 5 L8E it was 0.853; in that of chain 5 N4P, 0.00499; in that of chain 5 N4W, 0.00716. On the same count and under the same terms, to chain 5 N4Y belongs 0.00468. On the same count and under the same terms, in the case of chain 5 N4C it was 0.0721; in that of chain 5 N4S, 0.216; in that of chain 5 N4Q, 0.00512. With chain 5 N4I, the ratio to parent is 0.469.

Turning to chain 5 N4R, the ratio to parent amounted to 0.442. On the same count and under the same terms, in the case of chain 5 N4M it was 0.00281; in that of chain 5 N4K, 0.721. On to chain 5 N4L, for which the ratio to parent was 0.84. Still for that read-out and setting: to chain 5 N4F belongs 0.015; to chain 5 N4H, 0.155.

As to chain 5 N4G, the ratio to parent was found to be 0.0339. The same measure, in the same setting: to chain 5 N4V belongs 0.0175. With chain 5 N4T, the ratio to parent was 0.262. On the same count and under the same terms, in the case of chain 5 N4A it was 0.255. On to chain 5 N4E, for which the ratio to parent came out at 0.336.
